Columns and labels:
SE (untagged) = biological target: T1, SE (untagged) (Arabidopsis thaliana, UniProt Q9ZVD0 1-720); experiment: SPR; 50 mM NaCl; weaker than DCL1, rapid dissociation; SPR (Biacore T100): 20 mM Tris-HCl pH 7.0, 50 or 150 mM NaCl, 2 mM β-ME (0.005% P20 for SE variants); proteins 42-43 nM (Fig 2E), SE 20 nM (Fig 4), 16 nM DCL1 for complex; temperature not stated; conditions: protein: recombinant; tags: none (His6-StrepII-SUMOstar removed); label: 5'-biotin on strand 1; fork: 40 bp duplex; 20-nt 3' tail of strand 1 and 20-nt 5' tail of strand 2 unpaired; other end blunt
T1 sequence: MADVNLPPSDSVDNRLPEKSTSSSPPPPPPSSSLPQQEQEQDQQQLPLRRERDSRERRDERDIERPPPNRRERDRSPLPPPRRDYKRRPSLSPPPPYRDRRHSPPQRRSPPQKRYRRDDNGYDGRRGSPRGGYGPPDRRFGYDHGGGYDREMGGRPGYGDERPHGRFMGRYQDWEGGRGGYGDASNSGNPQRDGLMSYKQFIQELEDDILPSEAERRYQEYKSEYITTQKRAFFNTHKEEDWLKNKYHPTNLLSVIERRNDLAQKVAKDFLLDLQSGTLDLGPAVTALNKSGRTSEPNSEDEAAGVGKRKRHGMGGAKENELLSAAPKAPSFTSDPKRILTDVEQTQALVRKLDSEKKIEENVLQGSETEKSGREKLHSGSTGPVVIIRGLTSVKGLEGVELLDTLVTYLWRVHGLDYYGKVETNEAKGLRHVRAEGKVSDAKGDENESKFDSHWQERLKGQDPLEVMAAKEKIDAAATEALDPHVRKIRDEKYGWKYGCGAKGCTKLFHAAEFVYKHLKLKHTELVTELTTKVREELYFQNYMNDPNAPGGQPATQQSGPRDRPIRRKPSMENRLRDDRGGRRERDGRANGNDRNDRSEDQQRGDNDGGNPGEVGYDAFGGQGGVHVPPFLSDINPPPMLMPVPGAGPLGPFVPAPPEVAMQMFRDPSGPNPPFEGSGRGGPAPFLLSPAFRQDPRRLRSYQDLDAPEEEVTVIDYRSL

DCL1 = DCL1 (Arabidopsis thaliana, UniProt Q9SP32 1-1909); experiment: SPR; 50 mM NaCl; SPR (Biacore T100): 20 mM Tris-HCl pH 7.0, 50 or 150 mM NaCl, 2 mM β-ME (0.005% P20 for SE variants); proteins 42-43 nM (Fig 2E), SE 20 nM (Fig 4), 16 nM DCL1 for complex; temperature not stated; conditions: protein: recombinant; tags: none (His6-StrepII-SUMOstar removed); chain copies: 3; label: 5'-biotin on strand 1; fork: 40 bp duplex; 20-nt 3' tail of strand 1 and 20-nt 5' tail of strand 2 unpaired; other end blunt
DCL1;SE1-701 = DCL1;SE1-701 (Arabidopsis thaliana;Arabidopsis …, UniProt Q9SP32;Q9ZVD0 1-1909;1-701, |del702-720); experiment: SPR; SE1-701 injected on preformed DCL1/RNA complex, 50 mM NaCl; as wild-type SE; SPR (Biacore T100): 20 mM Tris-HCl pH 7.0, 50 or 150 mM NaCl, 2 mM β-ME (0.005% P20 for SE variants); proteins 42-43 nM (Fig 2E), SE 20 nM (Fig 4), 16 nM DCL1 for complex; temperature not stated; conditions: protein: recombinant;recombinant; tags: none (His6-StrepII-SUMOstar removed);N-terminal His6; vector also has inserted myc and Strep-tag II; label: 5'-biotin on strand 1; fork: 40 bp duplex; 20-nt 3' tail of strand 1 and 20-nt 5' tail of strand 2 unpaired; other end blunt
DCL1;SE143-720 = DCL1;SE143-720 (Arabidopsis thaliana;Arabidopsis …, UniProt Q9SP32;Q9ZVD0 1-1909;143-720, |del1-142); experiment: SPR; SE143-720 injected on preformed DCL1/RNA complex, 50 mM NaCl; SPR (Biacore T100): 20 mM Tris-HCl pH 7.0, 50 or 150 mM NaCl, 2 mM β-ME (0.005% P20 for SE variants); proteins 42-43 nM (Fig 2E), SE 20 nM (Fig 4), 16 nM DCL1 for complex; temperature not stated; conditions: protein: recombinant;recombinant; tags: none (His6-StrepII-SUMOstar removed);N-terminal His6; vector also has inserted myc and Strep-tag II; label: 5'-biotin on strand 1; fork: 40 bp duplex; 20-nt 3' tail of strand 1 and 20-nt 5' tail of strand 2 unpaired; other end blunt
SE (His-tagged) = biological target: T2, SE (His-tagged) (Arabidopsis thaliana, UniProt Q9ZVD0 1-720); experiment: SPR; 50 mM NaCl, 20 nM protein; SPR (Biacore T100): 20 mM Tris-HCl pH 7.0, 50 or 150 mM NaCl, 2 mM β-ME (0.005% P20 for SE variants); proteins 42-43 nM (Fig 2E), SE 20 nM (Fig 4), 16 nM DCL1 for complex; temperature not stated; conditions: protein: recombinant; tags: N-terminal His6; vector also has inserted myc and Strep-tag II; label: 5'-biotin on strand 1; fork: 40 bp duplex; 20-nt 3' tail of strand 1 and 20-nt 5' tail of strand 2 unpaired; other end blunt
T2 sequence: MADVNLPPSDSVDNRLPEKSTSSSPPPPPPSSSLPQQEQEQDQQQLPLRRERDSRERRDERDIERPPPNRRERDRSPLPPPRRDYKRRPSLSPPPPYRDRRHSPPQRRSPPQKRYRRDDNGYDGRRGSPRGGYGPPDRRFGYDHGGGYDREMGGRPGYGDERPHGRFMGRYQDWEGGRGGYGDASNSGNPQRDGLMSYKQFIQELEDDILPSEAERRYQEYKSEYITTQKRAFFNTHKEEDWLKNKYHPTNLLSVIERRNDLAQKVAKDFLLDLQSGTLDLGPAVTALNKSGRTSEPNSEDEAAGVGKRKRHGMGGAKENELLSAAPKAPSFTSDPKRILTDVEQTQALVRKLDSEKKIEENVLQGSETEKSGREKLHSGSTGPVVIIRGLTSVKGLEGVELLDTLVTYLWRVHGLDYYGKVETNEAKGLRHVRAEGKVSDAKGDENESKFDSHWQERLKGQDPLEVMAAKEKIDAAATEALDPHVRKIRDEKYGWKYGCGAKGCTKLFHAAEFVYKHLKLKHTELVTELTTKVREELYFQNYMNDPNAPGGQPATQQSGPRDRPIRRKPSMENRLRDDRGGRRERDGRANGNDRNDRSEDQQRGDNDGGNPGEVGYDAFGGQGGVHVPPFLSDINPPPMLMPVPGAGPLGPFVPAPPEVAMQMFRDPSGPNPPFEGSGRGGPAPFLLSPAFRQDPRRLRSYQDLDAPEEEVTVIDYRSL

Chain of DCL1 (Q9SP32 whole entry): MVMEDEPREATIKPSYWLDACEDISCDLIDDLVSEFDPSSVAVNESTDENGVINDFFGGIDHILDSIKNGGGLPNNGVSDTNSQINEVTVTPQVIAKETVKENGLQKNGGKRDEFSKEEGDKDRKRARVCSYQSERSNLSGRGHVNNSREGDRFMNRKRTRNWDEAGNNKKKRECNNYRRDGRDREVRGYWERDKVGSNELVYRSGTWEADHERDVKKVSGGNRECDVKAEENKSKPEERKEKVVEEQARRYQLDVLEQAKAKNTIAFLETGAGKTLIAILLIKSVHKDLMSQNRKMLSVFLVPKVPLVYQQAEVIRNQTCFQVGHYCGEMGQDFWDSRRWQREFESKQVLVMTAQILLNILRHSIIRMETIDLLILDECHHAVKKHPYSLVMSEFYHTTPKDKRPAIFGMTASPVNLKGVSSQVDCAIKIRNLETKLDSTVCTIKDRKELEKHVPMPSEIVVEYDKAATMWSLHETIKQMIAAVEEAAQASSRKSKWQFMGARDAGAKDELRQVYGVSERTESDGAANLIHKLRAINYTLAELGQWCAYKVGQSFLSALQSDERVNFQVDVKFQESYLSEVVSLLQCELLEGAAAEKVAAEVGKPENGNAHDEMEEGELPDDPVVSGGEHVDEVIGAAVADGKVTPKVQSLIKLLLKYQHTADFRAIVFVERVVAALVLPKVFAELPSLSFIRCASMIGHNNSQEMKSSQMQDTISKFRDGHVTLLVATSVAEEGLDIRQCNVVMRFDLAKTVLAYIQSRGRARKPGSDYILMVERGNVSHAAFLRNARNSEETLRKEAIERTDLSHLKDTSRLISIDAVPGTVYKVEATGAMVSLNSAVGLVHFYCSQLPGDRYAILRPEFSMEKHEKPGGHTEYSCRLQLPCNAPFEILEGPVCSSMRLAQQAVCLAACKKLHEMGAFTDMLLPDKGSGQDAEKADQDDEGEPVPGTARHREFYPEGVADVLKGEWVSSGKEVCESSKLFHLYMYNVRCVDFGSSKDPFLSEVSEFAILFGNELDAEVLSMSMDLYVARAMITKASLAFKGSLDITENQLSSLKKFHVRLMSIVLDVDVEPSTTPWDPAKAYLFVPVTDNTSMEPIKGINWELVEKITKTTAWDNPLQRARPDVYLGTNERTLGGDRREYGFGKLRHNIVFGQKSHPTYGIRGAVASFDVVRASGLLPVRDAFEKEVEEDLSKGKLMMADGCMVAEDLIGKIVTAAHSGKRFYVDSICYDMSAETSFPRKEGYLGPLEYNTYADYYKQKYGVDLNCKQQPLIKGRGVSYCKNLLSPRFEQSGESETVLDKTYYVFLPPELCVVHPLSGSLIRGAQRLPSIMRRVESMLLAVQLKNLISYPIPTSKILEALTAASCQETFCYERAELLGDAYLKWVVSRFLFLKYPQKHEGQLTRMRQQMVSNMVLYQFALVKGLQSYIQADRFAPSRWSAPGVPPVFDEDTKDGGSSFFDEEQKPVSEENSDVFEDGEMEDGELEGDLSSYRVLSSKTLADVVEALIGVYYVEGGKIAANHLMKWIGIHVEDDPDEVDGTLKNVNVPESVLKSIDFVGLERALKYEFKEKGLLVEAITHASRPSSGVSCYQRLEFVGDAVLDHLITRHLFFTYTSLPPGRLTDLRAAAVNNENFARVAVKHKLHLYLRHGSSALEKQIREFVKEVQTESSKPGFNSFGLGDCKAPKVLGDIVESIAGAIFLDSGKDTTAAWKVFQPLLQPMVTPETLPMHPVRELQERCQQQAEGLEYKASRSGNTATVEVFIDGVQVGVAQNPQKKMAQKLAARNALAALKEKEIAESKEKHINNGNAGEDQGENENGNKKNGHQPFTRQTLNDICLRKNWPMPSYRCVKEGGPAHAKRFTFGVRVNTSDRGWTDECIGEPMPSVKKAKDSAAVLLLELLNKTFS
Chain of DCL1;SE1-701 (Q9SP32 whole entry, stated change not applied, one chain of several): as the sequence (Q9SP32 whole entry) above
Chain of DCL1;SE143-720 (Q9SP32 whole entry, stated change not applied, one chain of several): as the sequence (Q9SP32 whole entry) above

B1: forked-RNA (dsRNA)
RNA 1: CAACCCAAGAUAGAUCAUGCAGGCAGCUUCAUCAGAUGCCGCUCCCUCUUUUUUUCUCUA
RNA 2: GCUCCCUCUUUUUUUCUCUAGGCAUCUGAUGAAGCUGCCUGCAUGAUCUAUCUUGGGUUG
SE (untagged)
  binding result: binds
DCL1
  binding result: binds
DCL1;SE1-701
  binding result: binds
DCL1;SE143-720
  binding signal: 2 fold less RUmax vs wild-type SE
SE (His-tagged)
  binding result: binds
